Results reported in paper PMC6016062 (Bioconjugate Chemistry, 2018).
Residues, ends and D or L forms follow the SMILES beside them. No end group written: not given here. *: point of attachment. Propyl(3-UDP) = O=c1ccn([C@@H]2O[C@H](COP(=O)(O)OP(=O)(O)OCCC*)[C@@H](O)[C@H]2O)c(=O)[nH]1; Floc = 5(6)-fluorescein carboxamide; Ahx = NCCCCCC(=O)O

Assays:
hOGT [1] = target: T1, hOGT (Homo sapiens, UniProt O15294); assay: fluorescence polarimetry assay, displacement of probe 17 from hOGT; format: binding; details: displacement of 0.75 µM 17 from 0.8 µM hOGT
T1 sequence (O15294 312-1031 isoform O15294-3): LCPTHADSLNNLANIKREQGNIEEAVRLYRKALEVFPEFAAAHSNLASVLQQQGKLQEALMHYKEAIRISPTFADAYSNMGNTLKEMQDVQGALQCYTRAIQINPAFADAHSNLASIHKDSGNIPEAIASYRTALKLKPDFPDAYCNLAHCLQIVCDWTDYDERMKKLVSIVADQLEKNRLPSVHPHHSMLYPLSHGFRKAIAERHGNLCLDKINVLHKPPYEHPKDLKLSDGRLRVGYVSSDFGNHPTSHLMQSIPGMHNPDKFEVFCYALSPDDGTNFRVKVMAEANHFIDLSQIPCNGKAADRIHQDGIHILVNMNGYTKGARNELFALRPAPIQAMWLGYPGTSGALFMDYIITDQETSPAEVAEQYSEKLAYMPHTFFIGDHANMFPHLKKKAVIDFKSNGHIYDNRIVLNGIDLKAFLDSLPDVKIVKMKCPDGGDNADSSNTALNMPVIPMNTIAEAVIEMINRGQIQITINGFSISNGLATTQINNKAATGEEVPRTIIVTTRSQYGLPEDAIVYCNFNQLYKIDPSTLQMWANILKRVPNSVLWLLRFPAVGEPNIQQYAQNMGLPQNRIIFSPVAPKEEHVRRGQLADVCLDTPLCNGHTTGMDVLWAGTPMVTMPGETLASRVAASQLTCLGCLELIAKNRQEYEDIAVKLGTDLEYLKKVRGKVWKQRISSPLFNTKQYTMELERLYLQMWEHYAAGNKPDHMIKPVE
Description: The derived values of Ki = 7 ± 2 μM (1) and Ki = 5 ± 2 μM (UDP-5S-GlcNAc) were in agreement with the previously reported affinities,[20],[25] validating this assay.
Next, we used this assay platform to examine the effect of the peptide sequence on the inhibitory potency of the S-linked UDP–peptide conjugates. We compiled a set of peptides derived from the known hOGT substrate proteins RB2, TAB1, CK2, and KER, as well as a previously published hOGT sequon[38] (Table 1). The topology of the heptapeptides in the 7-S5C subseries (19–23) was chosen to replicate that of the peptide 5. The nonapeptides 9-S5C (24–26) were designed with a centrally located Cys. […] The TEC reaction of allyl-UDP 4 with all substrates worked routinely well to give an array of the novel S-linked UDP–peptide conjugates 29–38 (Table 1, Table S1) that were evaluated by the modified FP assay (Table 1, Figure 5).
Fluorescence polarimetry measurements […]
probe (125 nM) in 0.1 M Tris-HCl pH 7.5, 0.15 M NaCl, 0.5 mM TCEP and 5% DMSO in a total volume of 25 µL and incubated in the dark for 30 min before read-out.
Binding affinities for ligands were determined by 17 displacement. […] Fluorescence polarisation was measured on a PHERAStar plate reader (BMG LABTECH). Data analysis was performed in GraphPad Prism 7 and binding constants for the labelled 17 and 18 were determined by fitting a one-site – Total binding curve. […]

OGT = target: OGT; parameters: method as in PMID 23103942; details: read-out: Kd of donor substrate; cited from earlier work
SH-SY5Y cells = assay: total O-GlcNAcylation in cell culture, Western blot (SH-SY5Y); format: cell-based; details: 24 h, concentrations up to 1 mM
hOGT [2] = target: T1, hOGT; assay: fluorometric hOGT activity assay (UDP formation)
[3] = target: human O-GlcNAc transferase (human) (UniProt O15294)
[4] = target: T2, human O-GlcNAc transferase (human, UniProt O15294 1-1046); assay: fluorescence polarisation; competition: displacement of the fluorescent probe 17 from hOGT by unlabeled conjugates, Ki derived; details: both partners purified
T2 sequence (looked up): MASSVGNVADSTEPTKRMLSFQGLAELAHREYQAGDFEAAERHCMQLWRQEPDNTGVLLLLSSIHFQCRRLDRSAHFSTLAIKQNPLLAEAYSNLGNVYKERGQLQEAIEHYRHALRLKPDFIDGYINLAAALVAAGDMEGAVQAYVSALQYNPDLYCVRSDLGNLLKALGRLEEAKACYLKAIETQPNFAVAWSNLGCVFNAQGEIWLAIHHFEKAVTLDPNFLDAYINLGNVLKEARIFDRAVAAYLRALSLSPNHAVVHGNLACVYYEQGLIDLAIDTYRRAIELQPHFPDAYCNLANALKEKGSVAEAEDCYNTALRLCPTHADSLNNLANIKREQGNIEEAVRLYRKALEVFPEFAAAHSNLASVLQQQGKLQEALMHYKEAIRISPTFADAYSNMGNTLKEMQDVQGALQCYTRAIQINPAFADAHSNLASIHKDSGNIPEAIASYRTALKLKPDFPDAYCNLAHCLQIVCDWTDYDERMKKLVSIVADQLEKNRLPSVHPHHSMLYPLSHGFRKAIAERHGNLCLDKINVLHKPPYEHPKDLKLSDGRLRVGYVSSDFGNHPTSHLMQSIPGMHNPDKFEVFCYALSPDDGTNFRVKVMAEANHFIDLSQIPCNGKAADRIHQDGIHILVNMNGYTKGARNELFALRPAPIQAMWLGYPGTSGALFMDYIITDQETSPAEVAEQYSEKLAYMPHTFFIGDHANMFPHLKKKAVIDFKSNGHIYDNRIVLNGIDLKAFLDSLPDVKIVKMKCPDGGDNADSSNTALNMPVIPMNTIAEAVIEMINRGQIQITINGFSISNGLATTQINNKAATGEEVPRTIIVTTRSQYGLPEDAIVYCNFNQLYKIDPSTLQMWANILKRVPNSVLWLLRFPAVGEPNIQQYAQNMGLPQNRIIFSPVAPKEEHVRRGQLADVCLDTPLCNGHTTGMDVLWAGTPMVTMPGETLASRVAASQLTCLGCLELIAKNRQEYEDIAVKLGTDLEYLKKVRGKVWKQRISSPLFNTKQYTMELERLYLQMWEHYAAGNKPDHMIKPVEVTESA

[5] = target: T2, human O-GlcNAc transferase; assay: fluorescence polarisation; direct binding of the fluorescein-labeled conjugates 17 and 18 to hOGT; details: both partners purified
[6] = target: T2, human O-GlcNAc transferase; assay: cell-based or functional assay
[7] = target: T2, human O-GlcNAc transferase; assay: fluorescence polarisation; competition: displacement of the fluorescent probe 17 from hOGT by unlabeled conjugates, Ki derived; details: both partners purified; remark: listed apart in the source

| Molecule | Ki [4] | other results |
| --- | --- | --- |
| CC(=O)N[C@H](C(=O)N[C@H](C(=O)N1CCC[C@H]1C(=O)N[C@H](C(=O)N[C@@H](CSCCCOP(=O)(O)OP(=O)(O)OC[C@H]1O[C@@H](n2ccc(=O)[nH]c2=O)[C@H](O)[C@@H]1O)C(=O)N[C@@H](CCCNC(=N)N)C(=O)N[C@@H](C)C(N)=O)C(C)C)[C@@H](C)O)C(C)C [compound 32] (Ac-VTPVC(Propyl(3-UDP))RA-NH2) |  | Ki (hOGT [1]): 1.3 ± 0.5 µM |
| CC(=O)N[C@H]1[C@@H](OP(=O)(O)OP(=O)(O)OC[C@H]2O[C@@H](n3ccc(=O)[nH]c3=O)[C@H](O)[C@@H]2O)O[C@H](CO)[C@@H](O)[C@@H]1O [UDP-GlcNAc] |  | Kd (OGT): 16 µM |
| CC(=O)N[C@@H]1[C@@H](O)[C@H](O)[C@@H](CO)S[C@@H]1OP(=O)(O)OP(=O)(O)OC[C@H]1O[C@@H](n2ccc(=O)[nH]c2=O)[C@H](O)[C@@H]1O [UDP-5S-GlcNAc, reference compound] |  | Ki (hOGT [1]): 5 ± 2 µM |
| CC(=O)N[C@@H](Cc1ccc(O)cc1)C(=O)NCC(=O)N[C@@H](CCCNC(=N)N)C(=O)N[C@@H](CCCCN)C(=O)N[C@@H](CCCCN)C(=O)N[C@@H](CCCNC(=N)N)C(=O)N[C@@H](CCCNC(=N)N)C(=O)N[C@@H](CCC(N)=O)C(=O)N[C@@H](CCCNC(=N)N)C(=O)N[C@@H](CCCNC(=N)N)C(=O)N[C@@H](CCCNC(=N)N)C(=O)NCCOCCOCC(=O)N[C@H](C(=O)N[C@H](C(=O)N1CCC[C@H]1C(=O)N[C@H](C(=O)N[C@@H](CSCCCOP(=O)(O)OP(=O)(O)OC[C@H]1O[C@@H](n2ccc(=O)[nH]c2=O)[C@H](O)[C@@H]1O)C(=O)N[C@H](C(=O)N[C@@H](C)C(N)=O)[C@@H](C)O)C(C)C)[C@@H](C)O)C(C)C [compound 13] |  | effect on total O-GlcNAcylation in cell cultures (SH-SY5Y cells): neither 11 nor 13 had a noticeable effect; IC50 (hOGT [2]): 5 µM |
| TAT-VTPVC(S-propyl-UDP)TA S-linked UDP-peptide conjugate 13 |  | inhibition of hOGT activity in vitro, IC50 [3]: 5 µM |
| VPTVC(S‑propyl‑UDP)TA [S-linked UDP-peptide conjugate 29, VPTVC(S-propyl-UDP)TA] | 12.8 ± 4.5 µM |  |
| SVPYC(S‑propyl‑UDP)SAQS [S-linked UDP-peptide conjugate 35, SVPYC(S-propyl-UDP)SAQS] | 15 ± 2.3 µM |  |
| PVFTC(S‑propyl‑UDP)RS [S-linked UDP-peptide conjugate 33, PVFTC(S-propyl-UDP)RS] | 12.5 ± 7 µM |  |
| SVPYC(S‑propyl‑UDP)SA [S-linked UDP-peptide conjugate 30, SVPYC(S-propyl-UDP)SA] | 2.3 ± 1.6 µM |  |
| KENSPAVTPVC(S‑propyl‑UDP)TA [S-linked UDP-peptide conjugate 38, KENSPAVTPVC(S-propyl-UDP)TA] | 1.8 ± 1.3 µM |  |
| {Floc-Ahx}-VTPVC(S‑propyl‑UDP)TA [5(6)-fluorescein carboxamide (Floc) labeled S-linked UDP-peptide conjugate 17] |  | Kd [5]: 1.6 µM |
| VTPVC(S‑propyl‑UDP)TATH [S-linked UDP-peptide conjugate 34, VTPVC(S-propyl-UDP)TATH] | 12.7 ± 2.3 µM |  |
| PVC(S‑propyl‑UDP)TATHSLSRLH [S-linked UDP-peptide conjugate 37, PVC(S-propyl-UDP)TATHSLSRLH] | 80 ± 46 µM |  |
| PVFTC(S‑propyl‑UDP)RSAA [S-linked UDP-peptide conjugate 36, PVFTC(S-propyl-UDP)RSAA] | 56 ± 32 µM |  |
| VTPVC(S‑propyl‑UDP)TA [S-linked UDP-peptide conjugate 6, VTPVC(S-propyl-UDP)TA] | 1.3 ± 0.8 µM | inhibition of hOGT activity, fluorometric OGT activity assay, IC50 [6]: 2 µM |
| VTPVC(S‑propyl‑UDP)SA [S-linked UDP-peptide conjugate 31, VTPVC(S-propyl-UDP)SA] | 1.2 ± 1.3 µM |  |
| VTPVS(O‑propyl‑UDP)TA [O-linked UDP-peptide conjugate 1, VTPVS(O-propyl-UDP)TA] |  | Ki [7]: 7 ± 2 µM |
